{"source": "paper PMC5882628", "about": "“Development of a Cell-Based Assay to Assess Binding of the proNGF Prodomain to Sortilin” (Cellular and Molecular Neurobiology, 2017)", "key": {"[1]": {"assay": "Precipitation and sticking to culture dishes; reagent stability", "assay_type": "physicochemical", "details": "GSTpro versus proNGF", "excerpt": "This behavior led to more diffuse staining compared to GSTpro. […] Given the complications driven by the biophysical properties of proNGF, we pursued GSTpro as a source of the pro binding domain.\nDue to reasons of stability of the proNGF protein and the specificity of binding, we recommend use of GSTpro in the assay, rather than recombinant proNGF. […] Although not formally tested by us, there may have been inconsistencies in the batches of proNGF protein used in the studies. As extracellular fluorescence could increase false positive cells by automated detection, proNGF was less reliable as a reagent in our assay (not shown). Both GSTpro and proNGF compete for binding to the sortilin receptor, it is likely that their binding sites are similar or at least overlap. Detection with GSTpro was more specific than with proNGF. […] The assay has the potential to use a tenfold lower concentration of GSTpro (5 nM, cf. Fig. 6v)."}, "[2]": {"system": "internalization-mutant sortilin", "assay": "GSTpro binding to HEK293 cells expressing internalization-mutant sortilin", "assay_type": "cell-based, human", "details": "compared with wild type sortilin", "description": "(§1) HEK 293 cells were grown in DMEM with 10% fetal bovine serum. They were transfected with plasmids either encoding wild type sortilin, or sortilin with a mutation that renders it endocytosis deficient, or an empty control vector according to manufacturer’s instructions using 20 µg lipofectamine (Thermo Fischer Scientific) with 8 µg DNA on […] per 6 cm, poly-lysine coated dish. The cells were initially plated into 24-well dishes after transfection. That intermediate step rendered more uniform cell numbers in the 96-well dishes that were used to run the actual assay. 24 h later, cells were split into black opaque-walled, clear-bottom 96 well dishes at 42000 cells in 80 µl medium/well. […]\n(§2) The fixed cells were washed with PBS for 15 min, followed by two 15 min washes with PBS with 0.1% Triton X-100. […] Wells to be evaluated for blocking of the sortilin-GSTpro interaction by antibodies were only stained with an antibody against the pro domain of proNGF in 10% FBS at a dilution of 1:1500 (Millipore (N-term) clone EPI318Y, Rabbit Monoclonal Antibody Catalog Number: #04-1142). […]\nThe following day, wells were washed 3 × 15 min with PBS/0.1% Triton X-100. […] Cellular fluorescence was quantified using an array scanner and the “Neuronal Profiler” Bioapplication (Thermo Fisher Scientific) as described below."}, "[3]": {"system": "empty vector control-transfected cells", "assay": "GSTpro signal in empty vector control-transfected HEK293 cells", "assay_type": "cell-based, human", "details": "Fig. 3a, c, d", "description": "as §1, §2\nThe following day, wells were washed 3 × 15 min with PBS/0.1% Triton X-100. […] Cellular fluorescence was quantified using an array scanner and the “Neuronal Profiler” Bioapplication (Thermo Fisher Scientific) as described below. […]"}}, "note": "Entries after “also recorded” stand apart in the source; their conditions may differ.", "data": [{"molecule": "GSTpro: fusion of Glutathione S-transferase (GST) merged at the C-terminal of GST to the pro part (19–121) of human proNGF (protein, left off: GST, N-terminal, kept, fusion of Glutathione S-transferase (GST) merged at the C-terminal of GST to the pro part (19–121) of human proNGF) EPHSESNVPAGHTIPQAHWTKLQHSLDTALRRARSAPAAAIAARVAGQTRNITVDPRLFKKRRLRSPRVLFSTQPPREAADTQDLDFEVGGAAPFNRTHRSKR", "values": [{"measurement": "stability compared to proNGF (in words)", "setting": "[1]", "value": "more stable than proNGF"}, {"measurement": "GSTpro signal in internalization-mutant versus wt sortilin cells (in words)", "setting": "[2]", "value": "stronger GSTpro signal than wild type sortilin; also recorded: slightly higher signal"}, {"measurement": "GSTpro binding signal in empty vector cells (in words)", "setting": "[3]", "value": "only very low signal"}]}]}
